{"source": "patent US12383572B2", "about": "“Administration of an anti-activin-a compound to a subject” (AMGEN INC., priority 2013, dated 2025)", "molecules": {"B1": {"name": "sActRIIB: extracellular domain of human activin type-2B receptor fused to IgG2 Fc; full length SEQ ID NO: 21 (Table 9) (protein, listed as Homo sapiens)", "chain": "ETRWCIYYNANWELERTNQSGLERCEGEQDKRLHCYASWRNSSGTIELVKKGCWLDDFNCYDRQECVATEENPQVYFCCCEGNFCNERFTHLPEAGGPEVTYEPPPTAPTGGGGSVECPPCPAPPVAGPSVFLFPPKPKDTLMISRTPEVTCVVVDVSHEDPEVQFNWYVDGVEVHNAKTKPREEQFNSTFRVVSVLTVVHQDWLNGKEYKCKVSNKGLPAPIEKTISKTKGQPREPQVYTLPPSREEMTKNQVSLTCLVKGFYPSDIAVEWESNGQPENNYKTTPPMLDSDGSFFLYSKLTVDKSRWQQGNVFSCSVMHEALHNHYTQKSLSLSPGK"}}, "key": {"[1]": {"experiment": "TOV-21G xenograft, hu-sActRIIB-Fc alone or with 5-FU: body weight", "assay_type": "in vivo, mouse", "settings": "TOV-21G tumor-bearing athymic nude mice", "description": "In another experiment, athymic nude mice received TOV-21G xenografts in the abdominal flank. After 14 days, subcutaneous hu-sActRIIB-Fc was administered weekly alone or in combination with 5-FU."}, "[2]": {"tested_on": "TOV-21G xenografts", "experiment": "TOV-21G xenograft, sActRIIB and 5-FU chemotherapy combination", "assay_type": "in vivo, human", "settings": "nude mice; sActRIIB 10 mg/kg SC 1x/week, 5-FU 50 mg/kg IP 3 cycles, alone or together", "description": "(§1) TOV-21G xenograft. 5×10^6 TOV-21G ovarian cancer cells were implanted subcutaneously into individual female athymic nu/nu mice (Harlan). Treatment was initiated at day 12 after tumor implantation, when the average tumor volume reached approximately 150 mm^3. The mice received PBS, sActRIIB (30 mg/kg, SC, 1×/week) or activin-A antibody (30 mg/kg, SC, 2×/week). In a separate chemotherapy combination experiment, the mice were treated with PBS, sActRIIB (10 mg/kg, SC, 1×/week), 5-FU (50 mg/kg, IP, 3 cycles, 4 daily injections per cycle) or sActRIIB and 5-FU combination at the same doses above. For all xenograft experiments, the tumor sizes were measured longitudinally by using an electronic caliper. Immediately prior to the 1st dose, the tumor-bearing mice were randomized to ensure even distribution in tumor sizes across different groups. Tumor volumes (mm^3) were calculated as tumor length (mm)×tumor width (mm)×tumor height (mm). Tumor weights were determined by necropsy."}, "[3]": {"tested_on": "TOV-21G, BAEC, MRC-5, CCD-Lu, U937 and THP-1 cultures", "experiment": "Real-time RT-PCR of VEGF, Ang-1 and βA in cell cultures treated with recombinant activin-A", "assay_type": "cell-based", "settings": "sActRIIB added with recombinant activin-A", "from_the_text": "ID NO: 291), [NT] ID NO: 292), and TaqMan probe [NT] ID NO: 293)."}, "[4]": {"tested_on": "TOV-21G ovarian cancer xenografts", "experiment": "TOV-21G xenograft growth in nude mice, activin-A antagonists alone", "assay_type": "in vivo, human", "settings": "sActRIIB 30 mg/kg SC 1x/week, activin-A antibody 30 mg/kg SC 2x/week, from day 12, vs PBS", "description": "as §1"}, "[5]": {"tested_on": "ovarian tumors in inh-KO mice", "experiment": "Ovarian tumor mass by necropsy in female inh-KO mice", "assay_type": "in vivo, mouse", "settings": "12-week-old female inh-KO mice, single injection 30 mg/kg SC, necropsy 14 days after", "description": "Inh-KO mice. 12-week-old female and 8-week-old male inh-KO mice with fully established ovarian or testicular tumors received a single injection of PBS or sActRIIB (30 mg/kg, SC). As a control, age-matched wild-type littermates received a single injection of PBS. Ovarian and testicular organ weights were determined by necropsy 14 days after the injection."}, "[6]": {"tested_on": "ovarian tumors in Inhα KO mice", "experiment": "sActRIIB single dose, withdrawal and re-administration in female Inhα KO mice: ovarian tumor weight", "assay_type": "in vivo, mouse", "description": "Eleven-to-fourteen-week-old female Inhα KO mice with body weight from 19.41 to 26.82 grams were subcutaneously (SC) injected with either 30 mg/kg sActRIIB or PBS. Age-matched WT littermate control mice were injected with PBS and served as baseline controls. The study ended by necropsy 2 weeks after injections. Two cohorts of mice were used in the study. Eleven-to-thirteen-week-old female Inhα KO mice with body weight from 17.7 to 27.4 grams were SC injected with either 30 mg/kg sAcLRIIB or PBS. Age-matched WT littermate control mice were injected with PBS and served as baseline controls. The withdrawal lasted for 8 weeks. At the end of the withdrawal, the sActRIIB treated mice were divided by balanced body weight into 2 groups (Group 3 and Group 4).\nGroup 2 and Group 3 were euthanized to examine the ovarian tumors. Group 4 received another dose of 30 mg/kg sActRIIB and the mice were euthanized together with the WT mice 4 weeks later (total 12 weeks). Mouse body weights were recorded once per week up to 12 weeks. For necropsy, mice were euthanized in a CO2 chamber. Normal ovaries in WT mice and ovarian tumors in Inhα KO mice were collected and weighed. All results were expressed as the mean±standard error of the mean (SEM). Statistical significance of difference between groups was analyzed using Student's 2-tailed t-test on MS Excel 5.0 software. The Chi-Square test (GraphPad Software Inc, San Diego, CA) was used to examine the differences in animal survival time. Statistical significance between groups is represented by p<0.05 values."}, "[7]": {"tested_on": "Smad2 signaling", "experiment": "Western blot of phospho-Smad2 in inh-KO tumors", "assay_type": "in vivo, mouse", "settings": "inh-KO mice, increase vs WT controls", "description": "Protein extracts were prepared from cell cultures or tissues in T-PER tissue protein extraction reagent (Pierce) containing a mixture of protease inhibitors (Roche). A pool of 50 μg total protein for each group containing equal amounts of protein extract isolated from individual animals was separated by NuPAGE 4-12% Bis-Tris gel (Invitrogen) and transferred to PVDF. The membranes were probed with primary antibodies against total Smad2, p-Smad2 or E-cadherin (1:1000; Cell Signaling), endoglin, osteopontin (1:500; R & D Systems), IGFBP-1, IGFBP-2 (1:500; Abcam) followed by HRP-conjugated secondary antibody (1:2000; Cell Signaling). The membranes were stripped and re-probed with antibody against α-tubulin (1:1000; Cell Signaling)."}, "[8]": {"tested_on": "caspase-3", "experiment": "Active caspase-3 immunostaining of inh-KO tumor sections", "assay_type": "in vivo, mouse", "settings": "ovarian and testicular tissue sections, regions of residual tumor cells", "description": "Zinc-formalin fixed paraffin tumor tissue sections of 4 μm in thickness were prepared. The sections were subjected to antigen retrieval by microwave 3 min in Unmask solution (Vector H-3300) followed by incubation in 10 μg/ml Proteinase-K for 20 min and in 1% H2O2 in dH2O for 10 min at room temperature. The sections were further incubated in 0.1% Tween-20 in PBS for 3 min to permeabilize the cell membrane and in goat serum for 30 min to block non-specific binding. The sections were then incubated at room temperature with specific primary antibody for 3 hours followed by incubation in biotinylated or fluorescently labeled secondary antibody. Substrate developed in Vector SG kit (SK-4700) or DAB and nuclear-counterstained in Vector Fast Red (H-3403) or in hematoxylin. The immunostained tissue sections were analyzed and photographed using a Nikon Eclipse 90i microscope equipped with DS-Ril camera. The primary antibodies used and their dilutions are as follows: VEGF (BD Pharmingen 550549) 1:20 or VEGF (Abcam ab46154) 1:100, active caspase-3 (Abcam ab32042) 1:50, Ang-1 (Abcam ab8451) 1:500, osteopontin (Abcam ab8448) 1:200, CD-31 (Abcam ab56299) 1:100, E-cadherin (Abcam ab76319) 1:80. For immunofluorescence staining, FITC-conjugated secondary antibody (Invitrogen) was added at 1:50 dilution in PBS and incubated for 30 min. Cell nuclei were counterstained with Vectashield PE (Vector)."}}, "note": "“Also recorded” adds a separate entry of the source."}
{"molecule": "B1", "values": [{"measurement": "body weight increase during the experiment", "setting": "[1]", "value": 26, "unit": "%"}, {"measurement": "rate of tumor growth", "setting": "[2]", "value": "decreased the rate of tumor growth significantly"}, {"measurement": "induction of VEGF and Ang-1 mRNA by recombinant activin-A", "setting": "[3]", "value": "prevented this induction of VEGF and Ang-1"}, {"measurement": "induction of βA expression by recombinant activin-A", "setting": "[3]", "value": "blocked completely"}, {"measurement": "growth of TOV-21G xenografts (tumor volume)", "setting": "[4]", "value": "significantly inhibited the growth"}, {"measurement": "ovarian tumor mass", "setting": "[5]", "value": "regressed rapidly to the sizes seen in the WT control mice"}, {"measurement": "ovarian tumor weight at 8 weeks after withdrawal from the initial single dose", "setting": "[6]; 30 mg/kg SC", "value": "grown in size similar to that of the PBS-treated Inhα KO mice"}, {"measurement": "ovarian tumor weight two weeks after a single dose", "setting": "[6]; 30 mg/kg SC", "value": "reduced to the WT control level"}, {"measurement": "ovarian tumor mass at week 12 (4 weeks after re-administration)", "setting": "[6]; re-administration 30 mg/kg at week 8, 30 mg/kg", "value": "effectively reduced the tumor mass; also recorded: effectively regressed the ovarian tumor mass to the size of the WT control group"}, {"measurement": "phospho-Smad2 in the tumor tissues", "setting": "[7]", "value": "eliminated this increase in phospho-Smad2"}, {"measurement": "active caspase-3 immunostaining", "setting": "[8]", "value": "strong immunostaining of active caspase-3"}]}
